The test system of series [1] is trypsin. Nature of the series: Tryptic digestion of nisin at pH 7.0, SDS-PAGE and HPLC. Type of series: physicochemical. The note with it: pH 7.0, nisin to trypsin about 10:1 (w/w), 30° C., after 96 hr. The method, then: Nisin has two internal lysine residues that are potential targets of the proteolytic enzyme trypsin. To determine whether nisin could be digested by trypsin, a digestion reaction mixture was prepared where a nisin preparation, partially purified nisin from a fermentor run, was exposed to trypsin under conditions optimal for trypsin activity. These conditions included a reaction pH of 7.0 and a nisin to trypsin ratio of about 10:1 (w/w). Samples were incubated at 30° C. and aliqoutes were removed for analysis every 24 hr, beginning at time zero. […] After 96 hr of treatment, more than 90% of nisin was degraded.
Tryptic digestion of nisin (50 mg) was carried out in 50 ml of a buffer consisting of 25mM sodium acetate, 6 mM Tris acetate, 5 mM CaCl2, and pH 7.0. One ml of USP grade trypsin (5mg/ml) was added followed by incubation at 30° C. Thereafter, 500 μl aliqouts of trypsin were added at times 24, 48, 72, and 96 hours. At each time point in the experiment, 2 ml aliquots were removed for further analysis, of which […] was immediately plated on blood agar plates for determination of contamination. The remaining 1.8 ml was stored at −20° C. until the end of experiment for SDS-PAGE and HPLC analysis.

The test system of series [2] is trypsin. The series is described as follows: Soluble trypsin digestion at low pH and low trypsin to nisin ratio, HPLC. In kind it is physicochemical. The note with it: below pH 5.50, nisin 11 mg/ml, trypsin 27.5 μg/ml (400:1 w/w), overnight, room temperature. The method, then: Peptide analysis has identified over 40 peptides that co-purify with nisin. All of these peptides have been identified as being products of Lactococcus fermentation. Since it was determined that nisin, at neutral to slightly alkaline pH and high trypsin to nisin ratios, is subject to proteolysis by trypsin, conditions were altered in an attempt to identify conditions under which trypsin would not degrade nisin but would degrade the peptide impurities in the nisin sample. Reaction mixtures containing nisin preparations, at a concentration of 11 mg/ml, and USP grade trypsin at a concentration of 27.5 μg/ml, were incubated overnight at room temperature (400:1 w/w). The pH of the mixtures ranged from 5.25 to 6.5.
To further optimize the conditions for removal of peptide impurities from nisin preparations by tryptic digestion, two liters of partially purified nisin was prepared at 4.55 mg/ml and incubated with 25 mg of USP grade trypsin for 16 hrs at 30° C. in 10 mM citric acid, pH 5.80. […] Moreover, subsequent removal of trypsin using a molecular weight cut off membrane yielded a recovery of 87.5% nisin and 0.38% trypsin.
For treatment of nisin with soluble trypsin, 2 liters of partially purified nisin from a fermentation product was prepared at 4.55 mg/ml in 10 mM citric acid buffer and 5 mM CaCl2. […] Nisin recovery and purity was determined by SDS-PAGE and HPLC. […]

Series [3] has as its target T1, TPCK treated insoluble trypsin (Bos taurus, UniProt P00760).
T1 construct: purchased Sigma Chemical Company
T1 sequence (P00760 24-246): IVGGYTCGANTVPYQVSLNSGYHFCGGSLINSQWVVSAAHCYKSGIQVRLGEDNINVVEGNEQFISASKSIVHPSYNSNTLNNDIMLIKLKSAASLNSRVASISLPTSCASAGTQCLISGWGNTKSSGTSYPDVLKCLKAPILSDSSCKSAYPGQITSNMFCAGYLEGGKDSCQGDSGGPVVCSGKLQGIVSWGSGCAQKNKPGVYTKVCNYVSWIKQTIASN
The series is described as follows: Insoluble trypsin (bound to beaded agarose) digestion, HPLC. In kind it is physicochemical. The note with it: 9.55 mg/ml, 1.6 ml insoluble trypsin on agarose, 6 hr, 30° C., trypsin removed by centrifugation. The procedure:
To determine whether insoluble trypsin treatment of nisin preparations was also effective in digestion of impurities, but not nisin itself, 1.6 liters of partially purified nisin prepared at 9.55 mg/ml was treated with 1.6 ml of TPCK treated insoluble trypsin bound to beaded agarose. After 6 hr of incubation at 30° C., and following removal of insoluble trypsin by centrifugation, the overall nisin recovery was about 90%.
(§1) Digestion experiments using pepsin (EC3.4.23.1), thrombin (EC3.4.21.5), V8 protease (EC3.4.21.19), subtilisin (EC3.4.21.62), papain (EC3.4.22.2), thermolysin (EC3.4.24.27), and clostripain (EC3.4.22.8) were performed essentially as described for trypsin and at pH 5.80. Pepsin digestion was also performed at pH 3.50. For trypsin digestions using trypsin linked to a solid matrix (e.g. insoluble trypsin), 1.6 liters of partially purified nisin was prepared at 9.5 mg/ml in 10 mM Tris HCl and pH 5.50. Following the addition of 1.6 ml of TPCK-treated trypsin bound to beaded agarose (Sigma Chemical Company), the reaction mixture was incubated at 30° C. for 6 hours with frequent agitation. Insoluble trypsin was removed by centrifugation at approximately 4000×g for 7 minutes. The resultant supernatant containing nisin was prepared for HPLC analysis.

The subject of a further series is pepsin. The series is described as follows: Protease digestion with pepsin. Type of series: physicochemical. The method, then: (§2) Nisin is comparatively resistant to proteolysis by trypsin under the optimized conditions described above. To determine whether nisin is also resistant to other proteolytic enzymes under similar conditions, partially purified nisin was exposed to pepsin, thrombin, V8 protease (Endo Gluc), subtilisin, papain, thermolysin, or clostripain at pH 5.80. Pepsin exposure was also performed at pH 3.50. […] Pepsin at pH 5.80 and thrombin appeared ineffective against the impurities as well.
as §1

The next series addresses thrombin (Homo sapiens, UniProt P00734). The series is described as follows: Protease digestion with thrombin. Type of series: physicochemical. The note with it: pH 5.80. The method, then: as §2, §1
The target of the next series is V8 protease (Endo Gluc) (Staphylococcus aureus, UniProt P0C1U8). The series is described as follows: Protease digestion with V8 protease. Type of series: physicochemical. The note with it: pH 5.80. The procedure: as §2, §1
Sequence of V8 protease (Endo Gluc) (P0C1U8 69-336): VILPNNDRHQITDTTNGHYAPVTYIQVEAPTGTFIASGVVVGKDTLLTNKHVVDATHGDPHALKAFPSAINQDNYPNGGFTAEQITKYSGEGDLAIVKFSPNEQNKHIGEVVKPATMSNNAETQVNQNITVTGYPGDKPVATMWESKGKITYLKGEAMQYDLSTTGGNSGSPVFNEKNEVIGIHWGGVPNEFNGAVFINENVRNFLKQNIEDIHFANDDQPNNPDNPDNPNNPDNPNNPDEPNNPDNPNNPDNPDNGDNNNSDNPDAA
The target of another series is subtilisin (Bacillus licheniformis, UniProt P00780). The series is described as follows: Protease digestion with subtilisin. Particulars: pH 5.80. Type of series: physicochemical. The method, then:
as §2, §1

In the next series the target is T2, papain (Carica papaya, UniProt P00784).
T2 sequence (P00784 134-345): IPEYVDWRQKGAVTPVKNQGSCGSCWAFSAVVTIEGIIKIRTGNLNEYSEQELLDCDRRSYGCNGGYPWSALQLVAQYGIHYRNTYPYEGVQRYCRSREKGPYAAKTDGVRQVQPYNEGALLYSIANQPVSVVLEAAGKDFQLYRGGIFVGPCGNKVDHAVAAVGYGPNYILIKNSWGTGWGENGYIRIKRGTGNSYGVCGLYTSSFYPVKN
Nature of the series: Protease digestion with papain. Type of series: physicochemical. Particulars: pH 5.80. The method, then:
as §2, §1

In another series the target is thermolysin (Bacillus thermoproteolyticus, UniProt P00800). Nature of the series: Protease digestion with thermolysin. Particulars: pH 5.80. In kind it is physicochemical. The procedure: as §2, §1
Sequence of thermolysin (P00800 233-548): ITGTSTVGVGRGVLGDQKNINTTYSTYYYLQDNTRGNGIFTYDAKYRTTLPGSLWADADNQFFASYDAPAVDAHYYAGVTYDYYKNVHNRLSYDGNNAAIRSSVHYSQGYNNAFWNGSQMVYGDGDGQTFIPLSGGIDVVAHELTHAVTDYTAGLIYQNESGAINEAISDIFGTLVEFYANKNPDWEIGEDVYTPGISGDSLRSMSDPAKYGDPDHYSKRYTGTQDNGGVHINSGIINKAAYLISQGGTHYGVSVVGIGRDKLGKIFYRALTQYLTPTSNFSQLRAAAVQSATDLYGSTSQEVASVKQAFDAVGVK
For a further series, the target named is T3, clostripain (Hathewaya histolytica, UniProt P09870).
T3 sequence (P09870 whole entry, looked up): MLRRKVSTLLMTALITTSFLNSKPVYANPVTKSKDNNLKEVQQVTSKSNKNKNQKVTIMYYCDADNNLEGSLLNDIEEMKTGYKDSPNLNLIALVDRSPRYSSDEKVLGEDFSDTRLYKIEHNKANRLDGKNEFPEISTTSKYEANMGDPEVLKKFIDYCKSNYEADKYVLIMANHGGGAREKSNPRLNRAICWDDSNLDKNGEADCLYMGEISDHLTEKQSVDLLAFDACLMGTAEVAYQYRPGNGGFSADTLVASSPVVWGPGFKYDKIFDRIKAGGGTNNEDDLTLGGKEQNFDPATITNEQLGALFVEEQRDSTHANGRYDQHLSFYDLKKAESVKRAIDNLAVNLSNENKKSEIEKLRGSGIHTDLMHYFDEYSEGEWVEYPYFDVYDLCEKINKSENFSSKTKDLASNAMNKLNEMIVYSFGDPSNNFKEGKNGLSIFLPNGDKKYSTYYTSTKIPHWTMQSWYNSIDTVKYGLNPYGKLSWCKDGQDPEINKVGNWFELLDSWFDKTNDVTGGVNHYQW
Nature of the series: Protease digestion with clostripain. In kind it is physicochemical. The note with it: pH 5.80. The procedure:
as §2, §1

Another series deals with non-mastitic cows. Nature of the series: Mammary infusion, somatic cell count of quarter milk. In kind it is in vivo. The procedure: Bovine intra-mammary infusion of impure nisin stimulates the production of high levels of somatic cells in milk as part of an inflammatory reaction.
Non-mastitic cows were treated with an infusion of vehicle, untreated, and trypsin-treated nisin (30 mg/10 ml) in the quarter after the 4th, 5th, and 6th milkings. The somatic cell count of the milk was recorded before, during, and after milking. High somatic cell counts were indicative of an inflammatory reaction. Statistical analysis was carried out using two sided t-Test comparisons with unequal variance.

The subject of series [4] is mastitic isolate of Streptococcus agalactiae (strain #20). The series is described as follows: Antibacterial 96 well plate assay. Type of series: cell-based. The note with it: bacterial growth read as absorbance. The procedure:
To confirm that the biological activity of nisin is also unaltered, in vitro bactericidal activity assay was performed. Trypsin-treated nisin was analyzed for antibacterial activity against a mastitic isolate of Streptococcus agalactiae (strain #20) in a 96 well plate assay and bacterial growth was read as absorbance readings on an ELISA reader.
Nisin activity was determined using an antibacterial assay against a mastitic isolate of Streptococcus agalactiae (IC 20) in a 96 well plate assay. Test samples were serially diluted into M17 10% lactose medium and then mixed with an equal volume of 10^4 cfu/ml. After 66 hr of incubation at room temperature, the plates were read on an ELISA reader at 450 nm. Wells containing bacterial growth gave high absorbance readings. The data was analyzed using a four-parameter curve-fitting software.

Where no end group is shown, it is not given here.

Sequence of subtilisin (P00780 106-379): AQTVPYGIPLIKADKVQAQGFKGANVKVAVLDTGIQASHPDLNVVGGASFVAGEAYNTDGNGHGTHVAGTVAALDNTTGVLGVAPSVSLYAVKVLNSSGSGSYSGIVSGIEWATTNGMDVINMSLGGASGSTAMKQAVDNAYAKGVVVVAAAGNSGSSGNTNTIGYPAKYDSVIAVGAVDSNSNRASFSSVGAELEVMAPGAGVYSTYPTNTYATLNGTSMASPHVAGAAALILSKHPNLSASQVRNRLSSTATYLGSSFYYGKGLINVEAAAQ

With “nisin (ITSISLCTPGCKTGALMGCNMKTATCHCSIHVSK; cysteine pairing not given here; also: lantibiotic nisin-A, modified residues not placed; UniProt P13068 24-57, looked up) [lysine-rich lantibiotic, polypeptide antimicrobial agent with lanthionine and β-methyl-lanthionine residues, used as food preservative]”, in the series on trypsin [1], the “nisin degraded by trypsin” value is “more than 90%”. Moreover, the “hydrolysis of nisin by trypsin” value in the series on trypsin [2] was “minimal hydrolysis”. In addition, in series [3], the “overall nisin recovery after insoluble trypsin incubation” value is listed as “about 90%”. The “proteolytic digestion of nisin by pepsin” value is listed as “did not digest nisin” with pepsin (pH 3.50) and “resistant” in the series on pepsin (pH 5.80). In addition, the “proteolytic digestion of nisin by thrombin” value with thrombin was “resistant”. The “proteolytic digestion of nisin by V8 protease” value with V8 protease (Endo Gluc) is “resistant”. In the series with subtilisin, the “proteolytic digestion of nisin by subtilisin” value is “resistant”. In addition, in the series with papain, the “proteolytic digestion of nisin by papain” value was “resistant”. For the same substance, in the series with thermolysin, the “proteolytic digestion of nisin by thermolysin” value is “resistant”. In the series with clostripain, the “proteolytic digestion of nisin by clostripain” value is on record as “resistant”.
As to “trypsin/nisin: nisin preparation purified by selective trypsin digestion of peptide impurities (ITSISLCTPGCKTGALMGCNMKTATCHCSIHVSK; also: lantibiotic nisin-A: lanthionine thioether rings, Dha/Dhb, positions not given here; UniProt P13068 24-57, looked up)”, the “somatic cell count of milk from treated quarters (inflammatory reaction), summary in words” value in the series on non-mastitic cows (intra-mammary infusion of 30 mg, non-mastitic cows) is “much lower and is not statistically different from quarters treated with buffer alone”. Further, the “Somatic Cell Count of Quarter Milk, mean of group” value (from here on “Somatic Cell Count of Quarter Milk”) with non-mastitic cows (milking 1 (before treatments; infusions 30 mg/10 ml given after 4th, 5th, 6th milkings)) is 10 X1000; in the series with non-mastitic cows (milking 2 (before treatments)) it was 22 X1000; in the series on non-mastitic cows (milking 3 (before treatments)), 23 X1000; with non-mastitic cows (milking 4 (before first treatment)) it was 21 X1000; in the series with non-mastitic cows (milking 5, infusions 30 mg/10 ml after 4th, 5th, 6th milkings), 54 X1000; with non-mastitic cows (milking 6) it was 187 X1000. Also, the “Somatic Cell Count of Quarter Milk” value in the series with non-mastitic cows (milking 7) was 300 X1000; in the series on non-mastitic cows (milking 8) it was 148 X1000; in the series with non-mastitic cows (milking 9), 106 X1000; in the series with non-mastitic cows (milking 10), 82 X1000; with non-mastitic cows (milking 11), 103 X1000; in the series on non-mastitic cows (milking 12), 81 X1000. Further, the “Somatic Cell Count of Quarter Milk” value with non-mastitic cows (milking 13) is listed as 60 X1000; with non-mastitic cows (milking 14) it was 36 X1000; with non-mastitic cows (milking 15), 53 X1000; in the series on non-mastitic cows (milking 16), 37 X1000; in the series with non-mastitic cows (milking 17), 40 X1000; in the series with non-mastitic cows (milking 18) it was 41 X1000. The “antimicrobial activity compared with control, untreated nisin” value in [4] is “not substantially different”.

For the origin of these results see patent publication US20040072333A1, “Method of purifying lantibiotics” (ImmuCell Corporation, priority 2002, published 2004).
